Test results from patent US20260217797A1 (Takeda / Millennium, published 2026).
Positions count from the first letter of the chain named.

B1: A-23 (antibody, V domains shown)
VH: EVQLVESGGGLVQPGRSLRLSCAASGFTFDDYAMHWVRQAPGKGLEWVSGISWNSGTIGYADSVKGRFIISRDNAKNSLYLQMNSLRGEDMALYYCGKDRKREDPSLGGMDVWGQGTTVTVSS
VL: SYVLTQPPSVSVAPGQTARITCGGNNIGSKSVHWYQQKPGQAPVLVVYDDTDRPSGIPERFSGSNSGNTATLTISRVEAGDEADYYCQVWDSSSDHYVFGTGTKVTVL
B2: A-23.1 (antibody, V domains shown)
VH: B1 VH with F29I, S55G
VL: B1 VL with G23L, S93E
B3: A-16 (antibody, V domains shown)
VH: B1 VH with E1Q
VL: B1 VL with V3E, V105L
B4: A-23.2 (antibody, V domains shown)
VH: B1 VH with I51T, G97V
VL: B1 VL with S92V, H96S
B5: A-23.3 (antibody, V domains shown)
VH: B1 VH with I51T, G97V
VL: B1 VL with H96D
B6: A-5 (antibody, V domains shown)
VH: QVQLVESGGGLIQPGESLRLSCAASEFIVSRNYMSWVRQAPGKGLEWVSVIYSGGNTYYADSVKGRFTISRDNSKNTLYLQMNSLRAEDTAVYYCARDLRGPGCFDFWGQGTTVTVSS
VL: DIQVTQSPSSLSASVGDRVTITCQASQDISNFLNWYQQKPGKAPKLLIYDASNLETGVPSRFSASGSGTEFTFTISSLQPEDIATYYCQQYDNLRVTFGGGTKLEIK
B7: A-12 (antibody, V domains shown)
VH: EVQLLESGGGLVQPGGSLRLSCAVSGLTVSSNYMSWVRQAPGKGLEWVSLIYSGGSTYYADSVKGRFTISRDNSKNTLYLQMNSLRAEDTAVYYCARGELGIPYGMDVWGQGTTVTVSS
VL: QSVLTQPPSVSAAPGQKVTISCSGGSSNVGDNFVSWYQQLPGTAPKLLIYDNNRRPSGIPDRFSGSKSGTSATLGITGLQTGDEADYYCGTWDSSLSAGVFGGGTKVTVL
B8: A-19 (antibody, V domains shown)
VH: QVQLVQSGAEVKKPGESLKISCKGSGYSFTSYWIAWVRQMPGKGLEWMGIIYPGDSDTSYSPSFQGQVTISADKSISTAYLQWSSLKASDTAMYYCARGPNKYNWFDTWGQGTLVTVSS
VL: not shown
B9: A-1 (antibody, V domains shown)
VH: EVQLVESGGGVVQPGGSLRLSCAASGFAFSTYWMHWVRQAPGKGLVWVSRINGDGSGTNYADSVKGRFTISRDNAKSTLYLQMNSLRTEDTAVYYCTRTAGRGAYDFGRFDPWGQGTLVTVSS
VL: DIVLTQTPLSLPVTPGEPASISCRSSQSLLHSNGYNYLDWYLQKAGQSPQLLVFLGSNRASGVPDRFSGSASGTDFTLKISRVEAEDVGVYYCMQALQIPITFGQGTRLEIK
B10: A-11 (antibody, V domains shown)
VH: EVQLVESGAEVKKPGSSVMVSCKASGGTFSRYAISWVRQAPGQGLEWMGGIIPVFGIVHYAQKFQGRVTITADKSTSTAYMELSSLRSEDTAAYYCARDRQQQPSPYYYHGMDVWGQGTTVTVSS
VL: DIRLTQSPSSLSASVGDRVTITCQASQDISNYLNWYQQKPGKAPKLLIYDASNLETGVPTRFSGSGSGTDFTFTISSLQPEDIATYYCQQYDNLPLFGGGTKVEIK
B11: A-10 (antibody, V domains shown)
VH: QVQLVQSGGGVVQPGRSLRLSCAASGFTFSSYGMHWVRQAPGKGLEWVAVISYDGSNKYYTDSVKGRFTISRDNSKNTLYLQMNSLRAEDTAVYYCAKDLPREVYYDILTGYDNPYYYYGMDVWGQGTTVTVSS
VL: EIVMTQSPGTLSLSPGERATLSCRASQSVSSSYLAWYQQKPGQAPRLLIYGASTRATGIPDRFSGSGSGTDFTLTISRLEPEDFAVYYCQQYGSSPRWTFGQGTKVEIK
B12: A-7 (antibody, V domains shown)
VH: EVQLVESGAEVRKPGASVKVSCKASGYTFTFYYIHWVRQAPGQGLEWMGWISPISGATNYAQTFQGRVTMTRDTSITTAYMELSSLTSDDTAVYYCAREKYYDSSGSSDYWGQGTLVTVSS
VL: QPVLTQPPSVSAAPGQNVTIFCSGSSSNIGNNYVSWYQQLPGPAPKLLIYENNKRPSGIPDRFSGSKSGTSATLGITGLQTGDEADYYCGTWESSLSAPRVFGSGTKLTVL
B13: A-20 (antibody, V domains shown)
VH: QVQLVESGGGVVQPGRSLRLSCAASGFTFSNFAMHWVRQAPGKGLEWVAVILYDGINKYYADSVKGRFTISRGNSKNTLSLQMNSLRAEDTAVYYCARAQNYYDRSGTLQLDAFDIWGQGTLVTVSS
VL: AIQMTQSPSSLSASVGDRVTITCRASQGIRNDLGWYQQKPGKAPKLLIYAASSLQSGVPSRFSGSGSGTDFTLTISSLQPEDFATYYCLQDYNYPLTFGGGTKVEIK
B14: A-20.1 (antibody, V domains shown)
VH: B13 VH
VL: B13 VL with R24V, A50E, Q55E
B15: A-15 (antibody, V domains shown)
VH: QVQLVQSGAEVKKPGASVKVSCKASGYTSSSYYMHWVRQAPGQGPEWMGIINPGGTSTSYAQKFQGRVTMTRDTSTSTVYMELSSLRSEDTAVYYCAIGYCSTTSCRWGDAFDIWGQGTMVTVSS
VL: DIQVTQSPSSLSASVGDRVTITCRASQSISSYLNWYQQKPEKAPNLLIYAASSLQSGVPSRFSGSGSGTDFTLTISSLQPEDFATYYCQQSSTTPPTFGQGTKVEIK
B16: A-3 (antibody, V domains shown)
VH: EVQLLESGPGLVKPSETLSLTCTVSGGSINSRSYYWGWIRQPPGKGLEWIGSIYYSGSTYYNPSLKSRVTISVDTSKNQFSLKLSSVIAADTAVYFCARLEQWELPGGWFDPWGQGTLVTVSS
VL: NFMLTQPHSVSESPGKTVTISCTRSSGSIASNYVQWYQQRPGSAPTTVIYEDNQRPSGVPDRFSGSIDISSNSASLTISGLKTEDEADYSCQSSDSSNVVFGGGTKLTVL
B17: A-2 (antibody, V domains shown)
VH: EVQLVESGGGLIQPGGSLRLSCAASGFTVSSNYMSWVRQAPGKGLEWVSIIYSGGSTYYADSVKGRFTISRDNSKNTLYLQMNSLRAEDTAVYYCARAPSGEYGDPIYYWGQGTLVTVSS
VL: QSVLTQPPSASASLGASVKLTCTLSSGHSTYTIAWHQQQPEKGPRYLMKLNSDGSHSKGDGIPDRFSGSSSGAERYLTISSLQSEDEADYYCQTWGTGNHWVFGGGTKLTVL
B18: A-14 (antibody, V domains shown)
VH: EVQLVESGGGVVQPGRSLRLSCAASGFTFSTYGMHWVRQAPGKGLEWVAVIWYDGSNKYYADSVKGRFTISRDNSKNTLYLQMNSLRAEDTAVYYCARSVDGDYLEYFQHWGQGTLVTVSS
VL: QPVLTQPRSVSGSPGQSVTISCTGTSSDVGGYNYVSWYQQHPGKAPKLMIYDVSKRPSGVPDRFSGSKSGNTASLTISGLQAEDEADYYCCSYAGGYTNYVFGTGTKLTVL
B19: A-8 (antibody, V domains shown)
VH: EVQLLESGGGLVQPGGSLRLSCAASGFTFSSYAMSWVRQAPGKGLEWVSAISGSGNSTSYADSVKGRFTLSRDNSKNTLYLQMNSLRAEDTAIYYCAKGLGTRSFNWGAFDYWGQGTLVTVSS
VL: DIRVTQSPSSLSASVGDRVTITCRASQGISYSLAWYQQKPGKAPKLLLYAASNLESGVPSRFSGSGSGTDYTLTVSSLQPEDFATYYCQQYYSTPWTFGQGTKVEIK
B20: A-13 (antibody, V domains shown)
VH: QVQLVQSGAEVKKPGASVKVSCKASGYTFTDYYMHWVRQAPGQGLEWMGWINPNSGGTNSAQKFQGRVTMTRDTSINTAYMELSRLRSDDTAVYFCARDSHLAMVRGDFEYWGQGTLVTVSS
VL: QSVLTQPASVSGSPGQSITISCTGTSSDVESYNVVSWYQQHPGKAPKLMIYEVSKRPSGVSHRFSGSKSGNTASLTISGLQAEDESDYYCCSYAGNSTWVFGGGTKLTVL
B21: A-4 (antibody, V domains shown)
VH: EVQLVESGGGLIQPGGSLTLSCAASGFTVSSNYMNWVRQAPGKGLEWVSVIYSGGSTYYADSVKGRFTISRDNSKNTLYLQMNSLRAEDTAVYYCAREVYSYFDYWGQGTLVTVSS
VL: DIQLTQSPSFLSASVGDRVTITCRASQGISSYLAWYQQKPGKAPKLLIYAASTLQSGVPSRFSGSGSGTEFTLTISRLQPEDLATYYCQQLNSYPPHTFGQGAKLEIK

What was measured:
[1] = target: SARS-CoV-2 Variant B.1.17 N501Y S1-His (SARS-CoV-2, UniProt P0DTC2 16-685); test: Octet BLI, IgG, monovalent
SARS-CoV-2 RBD-mFc = SARS-CoV-2 RBD-mFc (SARS-CoV-2, UniProt P0DTC2 319-541); test: Octet BLI, IgG, avid
[2] = target: SARS-CoV-2 Alpha (B.1.1.7) spike protein (on reporter virus particles) (SARS-CoV-2, UniProt P0DTC2 14-1273); test: cell-based or functional assay
[3] = target: SARS-CoV-2 Beta (B.1.351) spike protein (on reporter virus particles) (SARS-CoV-2, UniProt P0DTC2 14-1273); test: cell-based or functional assay
[4] = target: SARS-CoV-2 Omicron (B.1.529) spike protein (on reporter virus particles) (SARS-CoV-2, UniProt P0DTC2 14-1273); test: cell-based or functional assay
[5] = target: SARS-CoV-2 B.1.1.7 N501Y (Alpha) RBD (SARS-CoV-2, UniProt P0DTC2 319-541); test: Octet BLI single point, monovalent
[6] = target: SARS-CoV-2 B.1.351 (Beta) RBD (SARS-CoV-2, UniProt P0DTC2 319-541); test: Octet BLI single point, monovalent
[7] = target: SARS-CoV-2 P.1 Spike (Gamma) (SARS-CoV-2, UniProt P0DTC2 16-1213); test: Octet BLI single point, monovalent

Binder	Kd (SARS-CoV-2 RBD-mFc) [nM]	further results
B1		Kd [1]: 1.2 nM
B2		Kd [1]: 0.512 nM
B3	0.081	PsV neutralization IC50 [2]: 0.025 µg/mL; PsV neutralization IC90 [2]: 0.329 µg/mL; PsV neutralization IC50 [3]: 0.103 µg/mL; PsV neutralization IC90 [3]: 0.905 µg/mL; PsV IC50, Test 1 [4]: 0.19 nM; Kd [5]: 4.62 nM; Kd [6]: 6.05 nM; Kd [7]: 4.83 nM
B4		Kd [1]: 0.242 nM
B5		Kd [1]: 0.286 nM
B6	0.179	
B7	0.151	
B8	0.129	
B9	0.089	
B10	0.173	
B11	0.0931	
B12	0.0941	
B13		Kd [1]: 2.57 nM
B14		Kd [1]: 0.604 nM
B15	0.212	
B16	0.141	
B17	0.125	
B18	0.158	
B19	0.106	
B20	0.0959	
B21	0.663	
